The target of assay [1] is SARS-CoV-2 spike D614G on pseudovirus (VRC7480.D614G) (SARS-CoV-2) (UniProt P0DTC2). As to the kind of experiment: cell-based or functional assay.
Assay [2] addresses SARS-CoV-2 D614G live virus spike (SARS-CoV-2) (UniProt P0DTC2). As to the kind of experiment: cell-based or functional assay.

In assay [1], DH1042 (antibody) yielded a Pseudovirus IC50 of 0.011 µg/mL, a Pseudovirus IC80 of 0.053 µg/mL, a Pseudovirus MPI of 100% and a Pseudovirus neutralization IC50 of 0.011 µg/mL. In assay [1], this substance gave a Pseudovirus neutralization IC80 of 0.053 µg/mL and a Pseudovirus neutralization MPI of 100%.

In assay [1], DH1047 (antibody) had a Pseudovirus neutralization IC50 of 0.09 µg/mL, a Pseudovirus neutralization IC80 of 0.36 µg/mL and a Pseudovirus neutralization MPI of 100%. Further, the live virus neutralization IC50 in assay [2] was found to be 0.059 µg/mL.

The record behind these values is patent publication US20250188154A1.
